Source: IntAct's records for PubMed 31515488

B1: Copper homeostasis protein cutC homolog (Homo sapiens), Q9NTM9 (parent)
chain: MKRQGASSERKRARIPSGKAGAANGFLMEVCVDSVESAVNAERGGADRIELCSGLSEGGTTPSMGVLQVVKQSVQIPVFVMIRPRGGDFLYSDREIEVMKADIRLAKLYGADGLVFGALTEDGHIDKELCMSLMAICRPLPVTFHRAFDMVHDPMAALETLLTLGFERVLTSGCDSSALEGLPLIKRLIEQAKGRIVVMPGGGITDRNLQRILEGSGATEFHCSARSTRDSGMKFRNSSVAMGASLSCSEYSLKVTDVTKVRTLNAIAKNILV
B2: Leucine rich adaptor protein 1 (Homo sapiens), Q96LR2 (parent)
chain: MEGTVESQTPDLRDVEGKVGRKTPEGLLRGLRGECELGTSGALLLPGASSTGHDLGDKIMALKMELAYLRAIDVKILQQLVTLNEGIEAVRWLLEERGTLTSHCSSLTSSQYSLTGGSPGRSRRGSWDSLPDTSTTDRLDSVSIGSFLDTVAPSELDEQGPPGAPRSEMDWAKVIAGGERARTEVDVAATRLGSLRAVWKPPGERLQGGPPESPEDESAKLGFEAHWFWEQCQDDVTFL
partner: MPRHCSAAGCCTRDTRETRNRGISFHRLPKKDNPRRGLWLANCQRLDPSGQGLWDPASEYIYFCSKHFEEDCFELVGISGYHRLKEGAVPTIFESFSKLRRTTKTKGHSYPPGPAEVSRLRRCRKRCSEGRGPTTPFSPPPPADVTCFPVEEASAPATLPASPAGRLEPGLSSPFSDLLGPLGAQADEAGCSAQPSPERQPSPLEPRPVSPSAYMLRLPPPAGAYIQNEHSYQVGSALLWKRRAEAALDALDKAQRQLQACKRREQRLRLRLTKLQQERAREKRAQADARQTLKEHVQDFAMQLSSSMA
B3: Phospholipid scramblase 4 (Homo sapiens), Q9NRQ2 (parent)
chain: MSGVVPTAPEQPAGEMENQTKPPDPRPDAPPEYNSHFLPGPPGTAVPPPTGYPGGLPMGYYSPQQPSTFPLYQPVGGIHPVRYQPGKYPMPNQSVPITWMPGPTPMANCPPGLEYLVQLDNIHVLQHFEPLEMMTCFETNNRYDIKNNSDQMVYIVTEDTDDFTRNAYRTLRPFVLRVTDCMGREIMTMQRPFRCTCCCFCCPSARQELEVQCPPGVTIGFVAEHWNLCRAVYSIQNEKKENVMRVRGPCSTYGCGSDSVFEVKSLDGISNIGSIIRKWNGLLSAMADADHFDIHFPLDLDVKMKAMIFGACFLIDFMYFERSPPQRSR
partner: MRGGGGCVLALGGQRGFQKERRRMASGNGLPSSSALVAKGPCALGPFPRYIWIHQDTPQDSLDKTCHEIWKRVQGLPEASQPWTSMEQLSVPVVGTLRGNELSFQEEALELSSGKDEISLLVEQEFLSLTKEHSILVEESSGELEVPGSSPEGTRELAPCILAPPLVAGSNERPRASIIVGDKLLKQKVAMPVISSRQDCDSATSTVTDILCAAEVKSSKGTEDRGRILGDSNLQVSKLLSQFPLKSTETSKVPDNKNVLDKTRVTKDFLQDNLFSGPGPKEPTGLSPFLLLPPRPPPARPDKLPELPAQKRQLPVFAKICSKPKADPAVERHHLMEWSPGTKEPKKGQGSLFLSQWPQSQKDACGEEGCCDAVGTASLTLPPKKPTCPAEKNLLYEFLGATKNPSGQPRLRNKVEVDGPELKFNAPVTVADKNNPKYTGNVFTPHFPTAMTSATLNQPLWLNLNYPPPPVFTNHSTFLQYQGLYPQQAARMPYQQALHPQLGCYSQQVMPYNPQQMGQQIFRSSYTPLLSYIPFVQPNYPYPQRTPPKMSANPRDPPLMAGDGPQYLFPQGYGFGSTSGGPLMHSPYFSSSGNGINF
B4: Copper homeostasis protein cutC homolog (Homo sapiens), Q9NTM9 (parent)
chain: B1 chain
partner: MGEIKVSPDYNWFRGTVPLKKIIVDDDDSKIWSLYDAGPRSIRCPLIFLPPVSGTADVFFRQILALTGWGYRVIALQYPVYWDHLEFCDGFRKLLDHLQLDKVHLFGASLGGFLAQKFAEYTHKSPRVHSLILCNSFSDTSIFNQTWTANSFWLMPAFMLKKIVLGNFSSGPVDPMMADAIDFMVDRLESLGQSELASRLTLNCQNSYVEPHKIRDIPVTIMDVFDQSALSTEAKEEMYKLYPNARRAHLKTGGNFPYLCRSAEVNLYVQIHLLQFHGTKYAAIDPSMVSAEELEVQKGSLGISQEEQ
B5: Centrosomal protein POC5 (Homo sapiens), Q8NA72 (parent)
chain: MSSDEEKYSLPVVQNDSSRGSSVSSNLQEEYEELLHYAIVTPNIEPCASQSSHPKGELVPDVRISTIHDILHSQGNNSEVRETAIEVGKGCDFHISSHSKTDESSPVLSPRKPSHPVMDFFSSHLLADSSSPATNSSHTDAHEILVSDFLVSDENLQKMENVLDLWSSGLKTNIISELSKWRLNFIDWHRMEMRKEKEKHAAHLKQLCNQINELKELQKTFEISIGRKDEVISSLSHAIGKQKEKIELMRTFFHWRIGHVRARQDVYEGKLADQYYQRTLLKKVWKVWRSVVQKQWKDVVERACQARAEEVCIQISNDYEAKVAMLSGALENAKAEIQRMQHEKEHFEDSMKKAFMRGVCALNLEAMTIFQNRNDAGIDSTNNKKEEYGPGVQGKEHSAHLDPSAPPMPLPVTSPLLPSPPAAVGGASATAVPSAASMTSTRAASASSVHVPVSALGAGSAATAASEEMYVPRVVTSAQQKAGRTITARITGRCDFASKNRISSSLAIMGVSPPMSSVVVEKHHPVTVQTIPQATAAKYPRTIHPESSTSASRSLGTRSAHTQSLTSVHSIKVVD

Variants of: B1
Details: with lnx1_human LNX1, Q8TBB1
Chain of lnx1_human LNX1, Q8TBB1 (Q8TBB1 whole entry): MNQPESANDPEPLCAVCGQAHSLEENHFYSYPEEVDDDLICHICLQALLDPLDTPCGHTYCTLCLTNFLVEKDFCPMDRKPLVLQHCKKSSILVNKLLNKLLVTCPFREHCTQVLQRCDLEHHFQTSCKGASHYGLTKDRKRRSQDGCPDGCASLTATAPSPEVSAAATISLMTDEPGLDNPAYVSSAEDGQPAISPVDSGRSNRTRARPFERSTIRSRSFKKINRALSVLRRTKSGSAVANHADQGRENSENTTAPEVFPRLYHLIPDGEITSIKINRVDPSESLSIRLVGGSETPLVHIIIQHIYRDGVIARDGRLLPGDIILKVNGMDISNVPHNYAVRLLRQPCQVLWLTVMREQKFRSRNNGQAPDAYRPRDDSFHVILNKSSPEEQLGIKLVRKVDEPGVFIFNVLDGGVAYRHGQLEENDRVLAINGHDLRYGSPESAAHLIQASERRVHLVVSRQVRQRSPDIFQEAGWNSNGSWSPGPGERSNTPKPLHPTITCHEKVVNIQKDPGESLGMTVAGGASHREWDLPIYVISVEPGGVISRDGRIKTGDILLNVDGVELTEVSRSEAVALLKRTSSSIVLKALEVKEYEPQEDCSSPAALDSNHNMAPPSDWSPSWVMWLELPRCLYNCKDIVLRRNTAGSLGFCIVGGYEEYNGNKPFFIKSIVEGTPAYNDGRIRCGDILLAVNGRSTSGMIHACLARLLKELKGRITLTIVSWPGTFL

Row | Variant | effect of a mutation on the interaction
1 | P77L | disrupting interaction strength

Variants of: B2
Details: with thap7_human THAP7, Q9BT49

Row | Variant | effect of a mutation on the interaction
2 | M60L | with no effect
3 | Q207R | disrupting interaction strength

Variants of: B3
Details: with ca094_human C1orf94, Q6P1W5

Row | Variant | effect of a mutation on the interaction
4 | I155V | with no effect
5 | A107S | with no effect
6 | N34S | with no effect

Variants of: B4
Details: with spg21_human SPG21, Q9NZD8

Row | Variant | effect of a mutation on the interaction
7 | P77L | disrupting interaction strength

Variants of: B5
Details: with cetn1_human CETN1, Q12798
Chain of cetn1_human CETN1, Q12798 (Q12798 whole entry): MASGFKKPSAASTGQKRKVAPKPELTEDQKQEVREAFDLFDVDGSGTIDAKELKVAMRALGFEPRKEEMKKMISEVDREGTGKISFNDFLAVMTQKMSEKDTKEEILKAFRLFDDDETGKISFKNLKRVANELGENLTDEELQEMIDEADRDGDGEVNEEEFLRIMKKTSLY

Row | Variant | effect of a mutation on the interaction
8 | I175M | with no effect
9 | A446T | with no effect
10 | I85T | with no effect
11 | H36R | with no effect

Variants of: B5
Details: with cetn2_human CETN2, P41208
Chain of cetn2_human CETN2, P41208 (P41208 whole entry): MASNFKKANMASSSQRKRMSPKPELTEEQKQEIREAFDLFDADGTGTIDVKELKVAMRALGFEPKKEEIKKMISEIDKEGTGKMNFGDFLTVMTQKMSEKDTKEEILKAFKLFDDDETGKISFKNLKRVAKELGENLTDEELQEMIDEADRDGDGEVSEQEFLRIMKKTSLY

Row | Variant | effect of a mutation on the interaction
12 | H36R | with no effect
